Source: patent US20200102389A1 (Hoffmann-La Roche, published 2020)

B1: HLA-G-0032 (antibody, V domains shown)
VH: QVQLQQSGAELVKPGSSVKISCKASGYSFPSYDMHWIKQQPGNGLEWIGWIYPGNGNTKYNQKFNGKASLTADKSSSTAYMQLSSLTSEDSAVYFCAKPTVATRYNWFAYWGQGTLVTVSS
VL: QIVLTQSPALMSASPGEKVTMTCSASSSVNYMHWYQQKPRSSPKPWIYLTSNLASGVPARFSGSGSGTSYSLTISTMEAEDAATYYCQQWSSNLPITFGSGTKLEIK
B2: HLA-G-0037 (antibody, V domains shown)
VH: QVQLKESGPGLVQPSQTLSLTCSVSGFSLTTYSVSWVRQPPGKGLEWIGAIWSGGSTDYNSALKSRLRISRDTSKSQVLLKMNSLQTEDRAMYFCVRMNNKFGYWYFDLWGPGTMVTVSS
VL: DTVLTQSPTLAVSPGEKITISCRASETVSTMLHWYQQKPGQQPKLLISLASHLESGVPARFTGSGSGTDFTLTIDPVEADDTATYYCQQTWNDPLTFGSGTKLEIK
B3: HLA-G-0033 (antibody, V domains shown)
VH: EVQLVETGGGLVQSGRSLKLSCVASGFTFNDYWMTWTRQAPGKGLEWVASITNSGGRTYYLDSVRGRFTISRDDAQNTLYLQMNSLRSEDTATYYCTKERIYLTAYWFFDFWGPGTMVTVSS
VL: DTILTQSPALAVSPGERVTISCRASESVSTLIHWYQQKPGQRPKLLIYLASHLESGVPARFSGSGSGTDFTLTIDPVEADDTATYYCQQSWNEPRTFGGGTKLELK

Columns and labels:
[1] = target: T1, recombinant soluble human HLA-G β2M MHC class I complex, trimer (human); experiment: ELISA, HLA-G trimer coated on plate
T1 construct: also called HLA-G Trimer; fraction A8
Procedure: The above table summarizes the binding of different rat anti-human HLA-G monoclonal antibodies, derived from wt protein IMS. Shown are the relative EC50 values [ng/ml] of the respective binding to rec. wt monomeric, dimeric and trimeric HLA-G proteins as assessed by ELISA. The ELISA was set up by coating the biotinylated wt HLA-G antigen to strepdavidin plates. After incubation and washing steps, the respective antibodies were bound in a concentration range from 10-0 μg in 1:2 dilution steps. Detection of bound antibodies was carried out by anti-Fc-antibody-POD conjugates. EC50 values were determined from the resulting binding curves at the antibody concentrations generating the half-maximal signal. In case of the non-biotinylated HLA-G dimer and trimer antigens, immobilization was carried out by random coating on assay plates.

[2] = target: T1, recombinant soluble human HLA-G β2M MHC …; experiment: blocking ELISA, Fc tagged ILT2 coated, 100 nM antibody, soluble HLA-G trimer
Procedure: The ELISA was set up by coating the Fc tagged ILT2 and ILT4 respectively to Maxisorp microtiter plates. After incubation and washing steps, the respective antibodies were added at a concentration of 100nM. Soluble His tagged monomeric, dimeric or trimeric HLA-G was added to the wells. After incubation and washing steps, detection of bound receptor was carried out by anti-His-antibody-POD conjugates.

[3] = target: T2, human HLA-G expressed on cells (JEG3 naturally; SKOV3 HLA-G+ and PA-TU-8902 HLA-G+ transfectants) (human, UniProt P17693 25-338); experiment: flow cytometry, JEG3 cells pre-incubated with antibody, competitor ILT2-Fc chimera
T2 construct: whole, on cells; also called cell surface HLA-G; HLA-G on JEG3 cells
Procedure: For analysis, JEG3 cells (ATCC HTB36) were stained with ILT2-Fc fusion proteins (control=no inhibition) with or without pre-incubation with different anti-HLA-G antibodies. For the pre-incubation with anti-HLA-G antibodies 25 μl/well of the cell suspension was transferred into a polypropylene 96-Well V-bottom plate and prechilled in the at 4° C. for 10 min. Anti HLA-G antibodies or reference antibodies (G233, MEM-G/9 or 87G) were diluted in staining buffer to a 2-fold concentration of 20 μg/ml and 25 μl/well of the antibody solution was added to the prepared cells and incubated for 1 h at 5° C. Cells were washed twice with 200 μl/well staining buffer with centrifugation at 300 g for 3 min and finally resuspended in 25 μl/well staining buffer.
The detection of human ILT2-Fc Chimera protein (RD #2017-T2-050) to a) JEG3 cells pre-incubated anti HLA-G mAb or b) untreated JEG3 cells as reference was determined as follows: Briefly, the ILT2-Fc or control human IgG (Jackson-Immuno-Research #009-000-003) were diluted in staining buffer to a 2-fold concentration of 20 μg/ml (ILT2) and 25 μl/well of the ILT2-Fc protein solution was added to the prepared cells and incubated for 2 h at 5° C. Cells were again washed twice with 200 μl/well staining buffer the human ILT2-Fcprotein was detected with fluorescent labeled anti human IgG Fc-gamma specific antibody (F(ab′)₂ Fragment Goat Anti-Human IgG, Fcy fragment specific-FITC, Jackson-Immuno-Research #109-096-008) at a dilution of 10 μg/ml in staining buffer. Cell pellets were resuspended in 50 μl/well detection antibody. After a 1-hour incubation at 5° C. cells were washed twice with staining buffer, resuspended in 70 μl and measured at a FACS Canto II to determine ILT2 binding to JEG 3 cells.

[4] = target: T3, recombinant soluble human HLA-G β2M MHC class I complex, monomer (human); experiment: SPR (Biacore T200), antibody captured via anti-Fc, HLA-G complex injected, 25 C, 1:1 fit
T3 construct: His tagged; also called HLA-G-0003
Procedure: Binding kinetics of anti-HLA-G antibodies to human HLA-G, human HLA-G degrafted and human HLA-A2 were investigated by surface plasmon resonance using a BIACORE T200 instrument (GE Healthcare). All experiments were performed at 25° C. using PBS Buffer (pH 7.4+0.05% Tween20) as running buffer and PBS Buffer (+0.1% BSA) as dilution buffer. Anti-human Fc (JIR009-005-098, Jackson) or anti-rat Fc (JIR112-005-071, Jackson) or anti-Mouse Fc (JIR115-005-071, Jackson) antibodies were immobilized on a Series S CM5 Sensor Chip (GE Healthcare) at pH 5.0 by using an amine coupling kit supplied by GE Healthcare. Anti-HLA-G antibodies were captured on the surface leading to a capturing response of 50-200 RU. HLA-G molecules were injected for 180 s at 30 μl/min with concentrations from 2.5 up to 800 nM (2×1:2 and 4×1:3 dilution series) onto the surface (association phase). The dissociation phase was monitored for 300-600 sec by washing with running buffer. […] Bulk refractive index differences were corrected by subtracting the response obtained from a mock surface. Blank injections were subtracted (double referencing). The derived curves were fitted to a 1:1 Langmuir binding model using the BIAevaluation software.
The above table summarizes the antibody affinities and t1/2 values against wt and degrafted HLA-G as assessed by Surface plasmon resonance (Biacore) analysis. Binding kinetics of anti-HLA-G antibodies to human HLA-G, human HLA-G degrafted and human HLA-A2 were investigated by surface plasmon resonance using a BIACORE T200 instrument (GE Healthcare). All experiments were performed at 25° C. using PBS Buffer (pH 7.4+0.05% Tween20) as running buffer and PBS Buffer (+0.1% BSA) as dilution buffer. Anti-human Fc (JIR009-005-098, Jackson) or anti-rat Fc (JIR112-005-071, Jackson) or anti-Mouse Fc (JIR115-005-071, Jackson) antibodies were immobilized on a Series S CM5 Sensor Chip (GE

| Binder | EC50 [1] [nM] | % inh. ILT2 [2] [%] | Inhibition of ILT2 binding to Jeg3 cells [3] [%] | Kd [4] [nM] | koff [4] [s⁻¹] | kon [4] [M⁻¹ s⁻¹] | t ½ [4] [min] |
| --- | --- | --- | --- | --- | --- | --- | --- |
| B1 | 1.76 | 93 | 98.1 | 14.9 | 0.00076 | 51200 | 15 |
| B2 | 2.5 | 93 | 96.5 | 6.75 | 0.000882 | 131000 | 13 |
| B3 | 1.54 | 93 | -9.3 | 31.5 | 0.00165 | 52300 | 7 |
